Measured values published in patent US7063946B2, “Methods, reagents, kits and apparatus for protein function analysis” (Meso Scale Technologies, LLC., priority 2001, dated 2006).

Tests used:
[1] = system: ubiquitylation in reticulocyte lysates; test: 96-well screen of EST clones: ubiquitylation assay, FK2 antibody coated plate; type: biochemical, rabbit
Protocol: Transcription-translation reactions were assembled in a 96-well plate as described in Materials and Method in a total volume of 19 μl. The amounts of DNA in each reaction varied depending on DNA yields at purification stage, while the four positive control wells contained reactions with 20 μg/ml plasmid DNA. The reactions were incubated at 30° C. for 40 min.
After incubation, 1 μl of the TNT reaction was mixed with 50 μl of BB1 in an IPR plate coated with FK2 antibody (750 ng antibody per well) (see Materials and Methods).

[2] = system: N-end rule pathway ubiquitylation in reticulocyte lysates; test: ECL ubiquitylation assay of EST clone proteins, FK2 antibody coated IPR plate; type: biochemical, rabbit
Protocol: The following EST clones in bacteria were obtained: IMAGE ID #, 3446518, 3446518, 3446518, 3914731 (RGS4), 3914731 (RGS4), 3914731 (RGS4) (Incyte, Palo Alto). Bacteria containing EST clones were grown in 2 ml LB with 50 μg/ml Amp, and DNA was isolated using QIAprep Spin Miniprep Kit (Qiagen). DNA yield was 5–20 μg.
Proteins were prepared from the EST clones in transcription-translation reaction mixtures (total volume 12.5 uL) as described in the Materials and Methods except for the addition of 1 μM Ub aldehyde (Calbiochem). Then 1 μl of the reaction product was mixed with 50 μl of BB1 supplemented with 20 mM AMP-PNP, 20 mM N-ethylmaleimide and 2 μg/ml Sulfo-TAG-labeled streptavidin in to each well of an IPR plate coated with FK2 antibody.
As previously reported, RGS4 is a substrate of the N-end rule-dependent ubiquitylation in reticulocyte lysates (Davydov and Varshavsky, 2000, J. Biol. Chem., 275:22931–22941). To determine if the protein produced from clone 3446518 was similarly ubiquitylated through the N-end rule pathway, the ECL ubiquitylation assay was performed in the presence of dipeptide inhibitors Arg-β-Ala (type 1 inhibitor of the N-end rule pathway), or Trp-Ala (type 2 inhibitor of the same pathway). As was shown on FIG. 2, the RGS4 signal was reduced 3–4 fold in the presence of Arg-β-Ala (a type 1 inhibitor of the N-end rule pathway), but not in the presence of Trp-Ala (a type 2 inhibitor of the N-end rule pathway) in agreement with the previous report that RGS4 is a type 1 N-end rule substrate in reticulocyte lysates (Davydov and Varshavsky, 2000, J. Biol. Chem., 275:22931–22941). In contrast, the dipeptides had little effect on the assay signal from clone 3446518 (FIG. 2). Thus, a different pathway of the ubiquitin system mediates ubiquitylation of the protein produced from clone 3446518.

B1: 3912628: IMAGE clone protein: RGS4 (protein, UniProt P49798 1-205, looked up)
Regulator of G-protein …: MCKGLAGLPASCLRSAKDMKHRLGFLLQKSDSCEHNSSHNKKDKVVICQRVSQEEVKKWAESLENLISHECGLAAFKAFLKSEYSEENIDFWISCEEYKKIKSPSKLSPKAKKIYNEFISVQATKEVNLDSCTREETSRNMLEPTITCFDEAQKKIFNLMEKDSYRRFLKSRFYLDLVNPSSCGAEKQKGAKSSADCASLVPQCA
**Q.** With B1 as the molecule, how does the “signal in ubiquylation screen (FIG. 2, in words)” value (shortened to “signal in ubiquylation screen”) [1] read?
**A.** strong specific signal

**Q.** What about the “signal in ubiquitylation assay (in words)” value (“signal … (in words)” for short) [2] of the same molecule?
**A.** strong specific signal

B2: 3920860: IMAGE clone protein: RGS4 (protein, UniProt P49798 1-205, looked up)
Regulator of G-protein …: MCKGLAGLPASCLRSAKDMKHRLGFLLQKSDSCEHNSSHNKKDKVVICQRVSQEEVKKWAESLENLISHECGLAAFKAFLKSEYSEENIDFWISCEEYKKIKSPSKLSPKAKKIYNEFISVQATKEVNLDSCTREETSRNMLEPTITCFDEAQKKIFNLMEKDSYRRFLKSRFYLDLVNPSSCGAEKQKGAKSSADCASLVPQCA
**Q.** B2 was tested. Which “signal in ubiquylation screen” value [1] did it give?
**A.** strong specific signal

**Q.** And the “signal … (in words)” value [2]?
**A.** strong specific signal

B3: 3914731: IMAGE clone protein: RGS4 (protein, UniProt P49798 1-205, looked up)
Regulator of G-protein …: MCKGLAGLPASCLRSAKDMKHRLGFLLQKSDSCEHNSSHNKKDKVVICQRVSQEEVKKWAESLENLISHECGLAAFKAFLKSEYSEENIDFWISCEEYKKIKSPSKLSPKAKKIYNEFISVQATKEVNLDSCTREETSRNMLEPTITCFDEAQKKIFNLMEKDSYRRFLKSRFYLDLVNPSSCGAEKQKGAKSSADCASLVPQCA
**Q.** With B3 as the molecule, how does the “signal in ubiquylation screen” value [1] read?
**A.** strong specific signal

**Q.** And the “signal … (in words)” value [2]?
**A.** strong specific signal

**Q.** And the “ECL readings, Experiment 1” value ([2]; no dipeptide inhibitor)?
**A.** 41670

**Q.** What about the “ECL readings, Experiment 2” value ([2]; no dipeptide inhibitor) of the same molecule?
**A.** 43729

**Q.** And the “ECL readings, Experiment 3” value ([2]; no dipeptide inhibitor)?
**A.** 41806
